Measurements reported in the supplement of paper PMC10201428.
± gives the standard deviation of the averaged measurements.

Experiments:
[1] = tested on: VchCAST RNA-guided transposition machinery (E. coli BL21(DE3) host, lacZ target); assay: relative integration efficiency (T-RL orientation) vs wild-type transposon end (log2 (normalized fold change)); transposon end mutated: left end; higher = more efficient transposition
How it was run: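 A T7-driven effector plasmid encoding a CRISPR array, tniQ-cas8-cas7-cas6 and tnsA-tnsB-tnsC was co-transformed into E. coli BL21(DE3) together with a pUC57 mini-transposon donor holding barcoded pools of 1549 left-end or 1849 right-end variants. Transformants were plated with 0.1 mM IPTG at 37°C for 18 h. Illumina sequencing of PCR-amplified input plasmids and genomic integration junctions gave barcode abundances, and relative integration efficiency is their output/input fold change, normalised to reference barcodes and log-transformed.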

[2] = tested on: VchCAST RNA-guided transposition machinery (E. coli BL21(DE3) host, lacZ target); assay: relative integration efficiency (T-LR orientation) vs wild-type transposon end (log2 (normalized fold change)); transposon end mutated: left end; higher = more efficient transposition
Description: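 Pooled, barcoded VchCAST (Tn6677) mini-transposon donor libraries; each variable transposon-end sequence sits in a fixed pDonor mini-transposon context (10-bp barcode and cargo not included). Left- or right-end libraries were co-transformed with pEffector (TniQ-Cascade, TnsABC, lacZ crRNA, T7, 0.1 mM IPTG) into E. coli BL21(DE3) and grown 18 h at 37 C. T-LR and T-RL junction amplicons were sequenced; output/input barcode fold change was normalised to the mean of four wild-type barcodes and log2-transformed. Two biological replicates; zero-count/undetected variants carry floor values (-10 / -15), censored here. Barcode uncoupling by PCR recombination adds noise.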

| Sequence | relative integration efficiency (log2) [1] | relative integration efficiency (log2) [2] |
| --- | --- | --- |
| AATGTTGTTGAAACAACCATAAAGTGATAACAACGAATCAATTAAAATCATAGGCTTAATCGAAAAACAACCATATCTTGATATCGCACAAAACAACCATAAGTTGATATTTTTGTGAATCGAGTATTTCAGCAAAACTACTGCAGTAAGAA | -0.51 ± 0.3 | -0.526 ± 0.33 |
| AATGTTGTTGAAACAACCATAAAGTGATAACAACGAATCAATTAAAATCATAGGCTTAATCGAAAAACAACCATATCTTGATATCGCATAAAACAACCATAAGTTGATATTTTGGTGAAAAGGATATTCCAACCTTCATAGTTTAGTAAGAA | -0.201 ± 0.34 | 0.198 ± 0.12 |
| AATGTTGTTGAAACAACCATAAAGTGATAACAACGAATCAATTAAAATCATAGGCTTAATCGAAAAACAACCATATCTTGATATCGCATAAAACAACCATAAGTTGATATTTTGGTGAAACGAGTATTTCAGCAAAACTACTGCAGTAAGAA | 0.0434 ± 0.29 | -0.44 ± 0.53 |
| AATGTTGTTGAAACAACCATAAAGTGATAACAACGAATCAATTAAAATCATAGGCTTAATCGAAAAACAACCATATCTTGATATCGCATAAAACAACCATAAGTTGATATTTTTGTGAATCGAGTATTTCAGCAAAACTACTGCAGTAAGAA | -0.424 ± 0.24 | -0.327 ± 0.31 |
| AATGTTGTTGACAACCATAAAGTGATATTTAATAATTATTTATAATCAGCAACTTAACCACAAAACAACCATATATTGATATCTCACAAAACAACCATAAGTTGATATTTTTGTGAATCGAGTATTTCAGCAAAACTACTGCAGTAAGAAAG | -1.33 ± 0.66 | -5.1 ± 0.69 |
| AATGTTGTTGATACAACCATAAAATGATAATTACACCCATAAATTGATAATTATCACACCCATAAATTGATATTGCTGTGAATCGAGTATTTCAGCAAAACTACTGCAGTAAGAAAGTTACTTCGTGGTATGGGAGGATCAAGGAGCCAATA | -2.21 ± 0.71 | 3.47 ± 0.79 |
| AATGTTGTTGATACAACCATAAAGTGATATTTACAACCATATATTGATATCTCTCACAACCATAAGTTGATATTTTTGTGAATCGAGTATTTCAGCAAAACTACTGCAGTAAGAAAGTTACTTCGTGGTATGGGAGGATCAAGGAGCCAATA | -3.51 ± 1 | 2.35 ± 0.84 |
| AATGTTGTTGATCAACCATAAAGTGATATTTAATAATTATTTATAATCAGCAACTTAACCACAAAACAACCATATATTGATATCTCACAAAACAACCATAAGTTGATATTTTTGTGAATCGAGTATTTCAGCAAAACTACTGCAGTAAGAAA | -6.905 ± 0.028 | < -10 |
| AATGTTGTTGATGCAACACGCCCTGTCGCGGGCCGCCGGCGGGCGCCGACTACCAGGCCAACACCCCACCAACGCGCGGTCGCGAGACACCCCACCAACGCCTGGTCGCGGGGGTGTCCGATCTGATTTCAGCAAAACTACTGCAGTAAGAA | < -10 | < -10 |
| AATGTTGTTGATGCAACCAATTTCTGATATTTAATAATTATTTATAATCAGCAACTTAACCACAAAACAACCAATATATGATATCTCACAAAACAACCAATTCATGATATTTTTGTGAATCGAGTATTTCAGCAAAACTACTGCAGTAAGAA | -2.5 ± 1.1 | -1.57 ± 0.77 |
| AATGTTGTTGATGCAACCAGCCCTGTCGCGGGCCGCCGGCGGGCGCCGACTACCAGGCCAACACCCCACCAACGCGCGGTCGCGAGACACCCCACCAACGCCTGGTCGCGGGGGTGTCCGATCTGATTTCAGCAAAACTACTGCAGTAAGAA | < -10 | -9 ± 0.31 |
| AATGTTGTTGATGCAACCATAAAATGATAATTAATAATTATTTATAATCAGCAACTTAACCACAAAACAACCATAAAATGATAATTAACAAAAGTTGGTATTCAACTATAAAATGTGAATCGAGTATTTCAGCAAAACTACTGCAGTAAGAA | -2.57 ± 1.3 | -1.23 ± 2.7 |
| AATGTTGTTGATGCAACCATAAAATGATAATTAATAATTATTTATAATCAGCAACTTAACCACAAAACAACCATAAAATGATAATTAACAAAATAATTATCATTTTATGGTTGTGTGAATCGAGTATTTCAGCAAAACTACTGCAGTAAGAA | -3.63 ± 0.84 | 0.0912 ± 1.6 |
| AATGTTGTTGATGCAACCATAAAATGATAATTAATAATTATTTATAATCAGCAACTTAACCACAAAACAACCATAAAATGATAATTATTTTGTCAACCATAAAATGATAATTATGTGAATCGAGTATTTCAGCAAAACTACTGCAGTAAGAA | -1.39 ± 0.9 | -1.36 ± 1.1 |
| AATGTTGTTGATGCAACCATAAAATGATAATTAATAATTATTTATAATCAGCAACTTAACCACAAAACAACCATAAAGTGATATTTAACAAAAGTTGGTATTCAACTATAAAATGTGAATCGAGTATTTCAGCAAAACTACTGCAGTAAGAA | -2.33 ± 0.95 | -0.635 ± 1 |
| AATGTTGTTGATGCAACCATAAAATGATAATTAATAATTATTTATAATCAGCAACTTAACCACAAAACAACCATAAGTTGATATTTTACAAAAGTTGGTATTCAACTATAAAATGTGAATCGAGTATTTCAGCAAAACTACTGCAGTAAGAA | -2.24 ± 0.86 | -1.49 ± 1.9 |
| AATGTTGTTGATGCAACCATAAAATGATAATTAATAATTATTTATAATCAGCAACTTAACCACAAAACAACCATATATTGATATCTCACAAAAGTTGGTATTCAACTATAAAATGTGAATCGAGTATTTCAGCAAAACTACTGCAGTAAGAA | -2.59 ± 1.1 | -0.862 ± 0.91 |
| AATGTTGTTGATGCAACCATAAAATGATAATTAATAATTATTTATAATCAGCAACTTAACCACAAAACACCCATAAATTGATAATTAACAAAAGTTGGTATTCAACTATAAAATGTGAATCGAGTATTTCAGCAAAACTACTGCAGTAAGAA | -2.02 ± 1.1 | -0.121 ± 0.44 |
| AATGTTGTTGATGCAACCATAAAATGATAATTAATAATTATTTATAATCAGCAACTTAACCACAAAACACCCATAAATTGATATTGCACAAAAGTTGGTATTCAACTATAAAATGTGAATCGAGTATTTCAGCAAAACTACTGCAGTAAGAA | -3.1 ± 1.4 | -1.48 ± 0.57 |
| AATGTTGTTGATGCAACCATAAAATGATAATTAATAATTATTTATAATCAGCAACTTAACCACAAAATAATTATCATTTTATGGTTGACAAAATAATTATCATTTTATGGTTGTGTGAATCGAGTATTTCAGCAAAACTACTGCAGTAAGAA | -6.03 ± 2.2 | -0.969 ± 0.98 |
| AATGTTGTTGATGCAACCATAAAGTGAGCGGGCATAATTATTTATAATCAGCAACTTAACCACAAAACAACCATATATTGAGCGAGAACAAAACAACCATAAGTTGAGCGGGGTGTGAATCGAGTATTTCAGCAAAACTACTGCAGTAAGAA | -6.46 ± 1.3 | -4.11 ± 0.54 |
| AATGTTGTTGATGCAACCATAAAGTGATAATAATTATTTATAATCAGCAACTTAACCACAAAACAACCATATATTGATATCTCACAAAACAACCATAAGTTGATATTTTTGTGAATCGAGTATTTCAGCAAAACTACTGCAGTAAGAAAGTT | -7.71 ± 1.4 | -6.51 ± 1.4 |
| AATGTTGTTGATGCAACCATAAAGTGATAGGGCCGCCGGCGGGCGCCGACTACCAGGCCAACACCCCACCAACGCGCGGTCGCGAGACACCCCACCAACGCCTGGTCGCGGGGGTGTCCGATCTGATTTCAGCAAAACTACTGCAGTAAGAA | -7.44 ± 1.6 | -5.19 ± 2.5 |
| AATGTTGTTGATGCAACCATAAAGTGATATATAATTATTTATAATCAGCAACTTAACCACAAAACAACCATATATTGATATCTCACAAAACAACCATAAGTTGATATTTTTGTGAATCGAGTATTTCAGCAAAACTACTGCAGTAAGAAAGT | -7.3 ± 1.5 | -4.68 ± 0.68 |
| AATGTTGTTGATGCAACCATAAAGTGATATGGCCGCCGGCGGGCGCCGACTACCAGGCCAACACCCCACCAACGCGCGGTCGCGAGACACCCCACCAACGCCTGGTCGCGGGGGTGTCCGATCTGATTTCAGCAAAACTACTGCAGTAAGAA | -7.18 ± 0.63 | -6.67 ± 3.5 |
| AATGTTGTTGATGCAACCATAAAGTGATATTGCCGCCGGCGGGCGCCGACTACCAGGCCAACACCCCACCAACGCGCGGTCGCGAGACACCCCACCAACGCCTGGTCGCGGGGGTGTCCGATCTGATTTCAGCAAAACTACTGCAGTAAGAA | -7.14 ± 1.3 | -5.87 ± 0.86 |
| AATGTTGTTGATGCAACCATAAAGTGATATTTAAAATGTGAGCGAGTAACAACCCTTAACCACAAAACAACCATATATTGATATCTCACAAAACAACCATAAGTTGATATTTTTGTGAATCGAGTATTTCAGCAAAACTACTGCAGTAAGAA | -2.19 ± 0.48 | -0.988 ± 0.33 |
| AATGTTGTTGATGCAACCATAAAGTGATATTTAAAGTACAGCGCGACTGAACTCATCATTAAAACGACAACCATATATTGATATCTCACAAAACAACCATAAGTTGATATTTTTGTGAATCGAGTATTTCAGCAAAACTACTGCAGTAAGAA | -2.4 ± 1.2 | -0.487 ± 1.5 |
| AATGTTGTTGATGCAACCATAAAGTGATATTTAAATTGTGAGCGGATAACAATTCTTAACCACAAAACAACCATATATTGATATCTCACAAAACAACCATAAGTTGATATTTTTGTGAATCGAGTATTTCAGCAAAACTACTGCAGTAAGAA | -3.08 ± 0.73 | -3.23 ± 0.83 |
| AATGTTGTTGATGTAATTATCATTTTATGGTTGATAATTATTTATAATCAGCAACTTAACCACAAAATAATTATCATTTTATGGTTGACAAAACAACCATAAAATGATAATTATGTGAATCGAGTATTTCAGCAAAACTACTGCAGTAAGAA |  | < -10 |
